Assay results: article doi:10.1101/2020.01.12.903617, “The peptide sensor motif stabilizes the outward-facing conformation of TmrAB” (bioRxiv, 2020)
No end group written: not given here. fluorescein = fluorescein label attached to the Cys side chain

Target: T1, TmrAB G116A^TmrB (Thermus thermophilus, UniProt Q72J05 1-600; Q72J04 1-578, G116A)
T1 construct: TmrA, Thermus thermophilus, the chain of TmrAB with the canonical Walker B motif; TmrB, Thermus thermophilus, the chain of TmrAB with the non-canonical Walker B motif
T1 sequence 1: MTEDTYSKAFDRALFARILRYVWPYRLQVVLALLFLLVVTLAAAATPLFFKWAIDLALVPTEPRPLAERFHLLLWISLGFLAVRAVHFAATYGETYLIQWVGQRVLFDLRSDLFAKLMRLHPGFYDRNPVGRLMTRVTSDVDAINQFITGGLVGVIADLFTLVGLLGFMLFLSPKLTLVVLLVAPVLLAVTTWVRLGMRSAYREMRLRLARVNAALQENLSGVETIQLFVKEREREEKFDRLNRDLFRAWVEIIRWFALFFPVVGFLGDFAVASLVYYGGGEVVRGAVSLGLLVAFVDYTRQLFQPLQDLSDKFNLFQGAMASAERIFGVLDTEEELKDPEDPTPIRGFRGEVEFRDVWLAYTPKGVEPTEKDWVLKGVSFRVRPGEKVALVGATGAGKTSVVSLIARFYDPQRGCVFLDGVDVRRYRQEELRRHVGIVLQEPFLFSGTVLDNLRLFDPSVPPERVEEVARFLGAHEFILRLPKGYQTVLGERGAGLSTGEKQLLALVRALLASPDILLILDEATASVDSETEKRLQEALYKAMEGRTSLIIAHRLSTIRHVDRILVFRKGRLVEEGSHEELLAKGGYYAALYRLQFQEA
T1 sequence 2: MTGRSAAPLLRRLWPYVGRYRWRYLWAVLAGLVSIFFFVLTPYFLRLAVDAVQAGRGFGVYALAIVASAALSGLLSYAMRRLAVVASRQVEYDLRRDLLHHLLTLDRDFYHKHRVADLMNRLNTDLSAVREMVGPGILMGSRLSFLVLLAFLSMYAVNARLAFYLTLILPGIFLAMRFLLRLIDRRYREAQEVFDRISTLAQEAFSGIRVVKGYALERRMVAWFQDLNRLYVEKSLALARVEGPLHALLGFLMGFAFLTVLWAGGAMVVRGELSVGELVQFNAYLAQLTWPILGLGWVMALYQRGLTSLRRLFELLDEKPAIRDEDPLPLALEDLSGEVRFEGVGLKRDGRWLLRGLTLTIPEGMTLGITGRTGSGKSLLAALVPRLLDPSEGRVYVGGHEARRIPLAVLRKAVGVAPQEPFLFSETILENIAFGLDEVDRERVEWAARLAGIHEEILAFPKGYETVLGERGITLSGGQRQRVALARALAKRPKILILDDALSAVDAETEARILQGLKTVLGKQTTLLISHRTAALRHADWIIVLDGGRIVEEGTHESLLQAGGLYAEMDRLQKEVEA
Test: fluorescence polarisation; 1.7 uM TmrAB with 50 nM RRY(C^Fluorescein)KSTEL in SEC buffer (20 mM HEPES, 150 mM NaCl, pH 7, 0.05% ß-DDM), 15 minutes on ice, in the absence or presence of 5 mM ATP and 10 mM MgCl2; read at 25°C (the results say 4°C); signal normalized to WT without ATP
Conditions: both partners purified

B1: fluorescent transport substrate peptide RRY(C^Fluorescein)KSTEL (peptide)
peptide: RRYC(fluorescein)KSTEL
notes: fluorescein-labelled transport substrate peptide of TmrAB; also called fluorescently-labeled peptide substrate; peptide substrate; source: bought: Genscript
Does B1 bind?
Result: binds
